From patent US20210130436A1 (published 2021)

Tests used:
[1] = biological target: human CD28 (human, UniProt P10747 19-220); assay: flow cytometry, Jurkat cells (CD28)
[2] = biological target: T1, human PD-L1 (human, UniProt Q9NZQ7 19-290); assay: flow cytometry, CHO cells stably expressing PD-L1
T1 construct: also called huPD-L1; CD274

[3] = biological target: T1, human PD-L1; assay: flow cytometry; PD-L1 MFI over CD28 MFI
[4] = biological target: T2, human CTLA-4 (human, UniProt P16410 36-223); assay: flow cytometry, CHO cells stably expressing CTLA4
T2 construct: also called huCTLA4
T2 sequence (P16410 36-223): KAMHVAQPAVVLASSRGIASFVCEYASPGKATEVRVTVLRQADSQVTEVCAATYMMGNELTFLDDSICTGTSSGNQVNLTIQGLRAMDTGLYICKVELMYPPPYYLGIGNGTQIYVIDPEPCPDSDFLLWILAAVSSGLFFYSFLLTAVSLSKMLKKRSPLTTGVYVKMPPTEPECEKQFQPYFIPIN

[5] = biological target: T3, human PD-L1 expressed on CHO cells (human, UniProt Q9NZQ7 19-290); assay: flow cytometry, CHO cells stably expressing PD-L1; MFI relative to WT CD80 ECD-Fc (Abcam)
T3 construct: whole, on cells; Target on CHO cells stably expressing PD-L1; also called huPD-L1
T3 sequence (Q9NZQ7 19-290): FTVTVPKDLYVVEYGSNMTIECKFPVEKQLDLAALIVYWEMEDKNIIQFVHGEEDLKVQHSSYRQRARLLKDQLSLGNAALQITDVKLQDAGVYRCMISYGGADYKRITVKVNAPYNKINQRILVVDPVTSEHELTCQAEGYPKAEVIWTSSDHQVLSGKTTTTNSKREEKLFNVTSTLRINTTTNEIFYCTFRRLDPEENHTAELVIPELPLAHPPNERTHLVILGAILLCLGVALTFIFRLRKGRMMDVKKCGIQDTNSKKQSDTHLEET

[6] = biological target: T3, human PD-L1 expressed on CHO cells; assay: flow cytometry; MFI on PD-L1 cells over MFI on CD28 (Jurkat) cells at 33.3 nM
[7] = biological target: T3, human PD-L1 expressed on CHO cells; assay: flow cytometry, CHO cells stably expressing PD-L1, Fc fusion at 33.3 nM
[8] = biological target: T4, human CTLA4 expressed on CHO cells (human, UniProt P16410 36-223); assay: flow cytometry, CHO cells stably expressing CTLA4, Fc fusion at 33.3 nM
T4 construct: whole, on cells; Target on CHO cells stably expressing CTLA4; also called huCTLA4
T4 sequence (P16410 36-223): as the sequence (P16410 36-223) above

[9] = biological target: T5, CD28 endogenously expressed on Jurkat/IL2 reporter cells (human, UniProt P10747 19-220); assay: flow cytometry, Jurkat cells (CD28); MFI relative to WT CD80 ECD-Fc (Abcam)
T5 construct: whole, on cells; Target on Jurkat cells; also called Jurkats (CD28)

[10] = biological target: T5, CD28 endogenously expressed on …; assay: flow cytometry, Jurkat cells (CD28), Fc fusion at 33.3 nM
[11] = biological target: T4, human CTLA4 expressed on CHO cells; assay: flow cytometry, CHO cells stably expressing CTLA4; MFI relative to WT CD80 ECD-Fc (Abcam)

T1 sequence (Q9NZQ7 19-290): as the sequence (Q9NZQ7 19-290) above

Fold change to WT CD80 [1] [fold] | MFI at 33.3 nM [1] [MFI] | Fold change to WT CD80 [2] [fold] | MFI at 33.3 nM [2] [MFI] | Ratio of PDL1:CD28 [3] [ratio] | Fold change to WT CD80 [4] [fold] | MFI at 33.3 nM [4] [MFI] | Fold change to WT CD80 [5] [fold] | Ratio of PDL1:CD28 [6] [ratio] | MFI at 33.3 nM [7] [MFI] | MFI at 33.3 nM [8] [MFI] | Fold change to WT CD80 [9] [fold] | MFI at 33.3 nM [10] [MFI] | Fold change to WT CD80 [11] [fold] | Binder
0.5 | 14.6 | 63.5 | 3270 | 224 | 0.1 | 109 |  |  |  |  |  |  |  | CD80 IgV-Fc T13R/Q27L/Q33L/E35D/T41S/M47V/N48K/V68M/L85M (Fc fusion, not shown: a dimerising Fc or GST) VIHVTKEVKEVARLSCGHNVSVEELALTRIYWLKDKKMVLSMMSGDVKIWPEYKNRTIFDITNNLSIMILALRPSDEGTYECVVMKYEKDAFKREHLAEVTLSVKAD
 |  |  |  |  |  |  | 94.4 | 49.1 | 12100 | 30300 | 0.3 | 246 | 0.7 | CD80 E35D/M47V/V68M/L85Q/K89N IgV-Fc (Fc fusion, not shown: small tags and cut ends; a dimerising Fc or GST) VIHVTKEVKEVATLSCGHNVSVEELAQTRIYWQKDKKMVLTMMSGDVNIWPEYKNRTIFDITNNLSIMILALRPSDEGTYECVVQKYENDAFKREHLAEVTLSVKAD
 |  |  |  |  |  |  | 18.5 | 6.5 | 2370 | 42100 | 0.5 | 366 | 1 | CD80 M47V/N48K/K89N IgV-Fc (Fc fusion, not shown: small tags and cut ends; a dimerising Fc or GST) VIHVTKEVKEVATLSCGHNVSVEELAQTRIYWQKEKKMVLTMMSGDVKIWPEYKNRTIFDITNNLSIVILALRPSDEGTYECVVLKYENDAFKREHLAEVTLSVKAD
0.4 | 14.1 | 285 | 14700 | 1040 | 11.8 | 20700 |  |  |  |  |  |  |  | CD80 IgV-Fc T13R/Q33R/E35D/M47L/V68M (Fc fusion, not shown: a dimerising Fc or GST) VIHVTKEVKEVARLSCGHNVSVEELAQTRIYWRKDKKMVLTMMSGDLNIWPEYKNRTIFDITNNLSIMILALRPSDEGTYECVVLKYEKDAFKREHLAEVTLSVKAD
 |  |  |  |  |  |  | 203 | 23.9 | 25900 | 23900 | 1.5 | 1080 | 0.6 | CD80 E35D/D46V/M47V/N48K/V68M IgV-Fc (Fc fusion, not shown: small tags and cut ends; a dimerising Fc or GST) VIHVTKEVKEVATLSCGHNVSVEELAQTRIYWQKDKKMVLTMMSGVVKIWPEYKNRTIFDITNNLSIMILALRPSDEGTYECVVLKYEKDAFKREHLAEVTLSVKAD
 |  |  |  |  |  |  | 81.9 | 88.8 | 10500 | 26100 | 0.2 | 118 | 0.6 | CD80 E35D/M47V/N48K/V68M/L85Q IgV-Fc (Fc fusion, not shown: small tags and cut ends; a dimerising Fc or GST) VIHVTKEVKEVATLSCGHNVSVEELAQTRIYWQKDKKMVLTMMSGDVKIWPEYKNRTIFDITNNLSIMILALRPSDEGTYECVVQKYEKDAFKREHLAEVTLSVKAD
 |  |  |  |  |  |  | 45 | 14 | 5770 | 34700 | 0.6 | 411 | 0.9 | CD80 E35D/N48K/K89N IgV-Fc (Fc fusion, not shown: small tags and cut ends; a dimerising Fc or GST) VIHVTKEVKEVATLSCGHNVSVEELAQTRIYWQKDKKMVLTMMSGDMKIWPEYKNRTIFDITNNLSIVILALRPSDEGTYECVVLKYENDAFKREHLAEVTLSVKAD
0.5 | 14.2 | 21.5 | 1110 | 77.9 | 12.6 | 22000 |  |  |  |  |  |  |  | CD80 IgV-Fc T13R/Q33R/E35D/M38I/M47L/V68M/L85M (Fc fusion, not shown: a dimerising Fc or GST) VIHVTKEVKEVARLSCGHNVSVEELAQTRIYWRKDKKIVLTMMSGDLNIWPEYKNRTIFDITNNLSIMILALRPSDEGTYECVVMKYEKDAFKREHLAEVTLSVKAD
 |  |  |  |  |  |  | 52.1 | 9.5 | 6670 | 43800 | 1 | 701 | 1.1 | CD80 E35D/M47V/N48K/K89N IgV-Fc (Fc fusion, not shown: small tags and cut ends; a dimerising Fc or GST) VIHVTKEVKEVATLSCGHNVSVEELAQTRIYWQKDKKMVLTMMSGDVKIWPEYKNRTIFDITNNLSIVILALRPSDEGTYECVVLKYENDAFKREHLAEVTLSVKAD
3.6 | 112 | 368 | 18900 | 169 | 7.7 | 13400 |  |  |  |  |  |  |  | CD80 IgV-Fc T13R/Q33R/E35D/M47L/V68M/L85M (Fc fusion, not shown: a dimerising Fc or GST) VIHVTKEVKEVARLSCGHNVSVEELAQTRIYWRKDKKMVLTMMSGDLNIWPEYKNRTIFDITNNLSIMILALRPSDEGTYECVVMKYEKDAFKREHLAEVTLSVKAD
 |  |  |  |  |  |  | 205 | 79.4 | 26300 | 36500 | 0.5 | 331 | 0.9 | CD80 E35D/D46V/M47V/V68M/L85Q IgV-Fc (Fc fusion, not shown: small tags and cut ends; a dimerising Fc or GST) VIHVTKEVKEVATLSCGHNVSVEELAQTRIYWQKDKKMVLTMMSGVVNIWPEYKNRTIFDITNNLSIMILALRPSDEGTYECVVQKYEKDAFKREHLAEVTLSVKAD
0.5 | 16 | 77 | 3970 | 248 | 0.1 | 105 |  |  |  |  |  |  |  | CD80 IgV-Fc T13R/Q33L/E35D/M47V/T62S/V68M/L85M (Fc fusion, not shown: a dimerising Fc or GST) VIHVTKEVKEVARLSCGHNVSVEELAQTRIYWLKDKKMVLTMMSGDVNIWPEYKNRTIFDISNNLSIMILALRPSDEGTYECVVMKYEKDAFKREHLAEVTLSVKAD
35.4 | 1110 | 372 | 19200 | 17.2 | 11.8 | 20700 |  |  |  |  |  |  |  | CD80 IgV-Fc T13R/Q33R/E35D/M38I/M47L/V68M/E95V/L97Q (Fc fusion, not shown: a dimerising Fc or GST) VIHVTKEVKEVARLSCGHNVSVEELAQTRIYWRKDKKIVLTMMSGDLNIWPEYKNRTIFDITNNLSIMILALRPSDEGTYECVVLKYEKDAFKRVHQAEVTLSVKAD
 |  |  |  |  |  |  | 113 | 22.6 | 14500 | 34600 | 0.9 | 641 | 0.9 | CD80 M47V/N48K/V68M IgV-Fc (Fc fusion, not shown: small tags and cut ends; a dimerising Fc or GST) VIHVTKEVKEVATLSCGHNVSVEELAQTRIYWQKEKKMVLTMMSGDVKIWPEYKNRTIFDITNNLSIMILALRPSDEGTYECVVLKYEKDAFKREHLAEVTLSVKAD
 |  |  |  |  |  |  | 5.9 | 6.4 | 754 | 2340 | 0.2 | 118 | 0.1 | CD80 N48K/V68M IgV-Fc (Fc fusion, not shown: small tags and cut ends; a dimerising Fc or GST) VIHVTKEVKEVATLSCGHNVSVEELAQTRIYWQKEKKMVLTMMSGDMKIWPEYKNRTIFDITNNLSIMILALRPSDEGTYECVVLKYEKDAFKREHLAEVTLSVKAD
0.5 | 15.7 | 62.7 | 3230 | 206 | 0.1 | 141 |  |  |  |  |  |  |  | CD80 IgV-Fc T13R/Q33L/E35D/M47L/V68M/L85M (Fc fusion, not shown: a dimerising Fc or GST) VIHVTKEVKEVARLSCGHNVSVEELAQTRIYWLKDKKMVLTMMSGDLNIWPEYKNRTIFDITNNLSIMILALRPSDEGTYECVVMKYEKDAFKREHLAEVTLSVKAD
